The chains are these.
B1: cyclic nNOS β-hairpin peptide T123Y (peptide)
peptide: cyclo(THLETTFTGDGTPKTIRVYQ[dP]GQ)
SMILES: CC[C@H](C)[C@@H]1NC(=O)[C@H]([C@@H](C)O)NC(=O)[C@H](CCCCN)NC(=O)[C@@H]2CCCN2C(=O)[C@H]([C@@H](C)O)NC(=O)CNC(=O)[C@H](CC(=O)O)NC(=O)CNC(=O)[C@H]([C@@H](C)O)NC(=O)[C@H](Cc2ccccc2)NC(=O)[C@H]([C@@H](C)O)NC(=O)[C@H]([C@@H](C)O)NC(=O)[C@H](CCC(=O)O)NC(=O)[C@H](CC(C)C)NC(=O)[C@H](Cc2c[nH]cn2)NC(=O)[C@H]([C@@H](C)O)NC(=O)[C@H](CCC(N)=O)NC(=O)CNC(=O)[C@H]2CCCN2C(=O)[C@H](CCC(N)=O)NC(=O)[C@H](Cc2ccc(O)cc2)NC(=O)[C@H](C(C)C)NC(=O)[C@H](CCCNC(=N)N)NC1=O
B2: cyclic nNOS β-hairpin peptide T123R (peptide)
peptide: cyclo(THLETTFTGDGTPKTIRVRQ[dP]GQ)
SMILES: CC[C@H](C)[C@@H]1NC(=O)[C@H]([C@@H](C)O)NC(=O)[C@H](CCCCN)NC(=O)[C@@H]2CCCN2C(=O)[C@H]([C@@H](C)O)NC(=O)CNC(=O)[C@H](CC(=O)O)NC(=O)CNC(=O)[C@H]([C@@H](C)O)NC(=O)[C@H](Cc2ccccc2)NC(=O)[C@H]([C@@H](C)O)NC(=O)[C@H]([C@@H](C)O)NC(=O)[C@H](CCC(=O)O)NC(=O)[C@H](CC(C)C)NC(=O)[C@H](Cc2c[nH]cn2)NC(=O)[C@H]([C@@H](C)O)NC(=O)[C@H](CCC(N)=O)NC(=O)CNC(=O)[C@H]2CCCN2C(=O)[C@H](CCC(N)=O)NC(=O)[C@H](CCCNC(=N)N)NC(=O)[C@H](C(C)C)NC(=O)[C@H](CCCNC(=N)N)NC1=O
B3: cyclic nNOS β-hairpin peptide V122R (peptide)
peptide: cyclo(THLETTFTGDGTPKTIRRTQ[dP]GQ)
SMILES: CC[C@H](C)[C@@H]1NC(=O)[C@H]([C@@H](C)O)NC(=O)[C@H](CCCCN)NC(=O)[C@@H]2CCCN2C(=O)[C@H]([C@@H](C)O)NC(=O)CNC(=O)[C@H](CC(=O)O)NC(=O)CNC(=O)[C@H]([C@@H](C)O)NC(=O)[C@H](Cc2ccccc2)NC(=O)[C@H]([C@@H](C)O)NC(=O)[C@H]([C@@H](C)O)NC(=O)[C@H](CCC(=O)O)NC(=O)[C@H](CC(C)C)NC(=O)[C@H](Cc2c[nH]cn2)NC(=O)[C@H]([C@@H](C)O)NC(=O)[C@H](CCC(N)=O)NC(=O)CNC(=O)[C@H]2CCCN2C(=O)[C@H](CCC(N)=O)NC(=O)[C@H]([C@@H](C)O)NC(=O)[C@H](CCCNC(=N)N)NC(=O)[C@H](CCCNC(=N)N)NC1=O
B4: cyclic nNOS β-hairpin peptide V122F (peptide)
peptide: cyclo(THLETTFTGDGTPKTIRFTQ[dP]GQ)
SMILES: CC[C@H](C)[C@@H]1NC(=O)[C@H]([C@@H](C)O)NC(=O)[C@H](CCCCN)NC(=O)[C@@H]2CCCN2C(=O)[C@H]([C@@H](C)O)NC(=O)CNC(=O)[C@H](CC(=O)O)NC(=O)CNC(=O)[C@H]([C@@H](C)O)NC(=O)[C@H](Cc2ccccc2)NC(=O)[C@H]([C@@H](C)O)NC(=O)[C@H]([C@@H](C)O)NC(=O)[C@H](CCC(=O)O)NC(=O)[C@H](CC(C)C)NC(=O)[C@H](Cc2c[nH]cn2)NC(=O)[C@H]([C@@H](C)O)NC(=O)[C@H](CCC(N)=O)NC(=O)CNC(=O)[C@H]2CCCN2C(=O)[C@H](CCC(N)=O)NC(=O)[C@H]([C@@H](C)O)NC(=O)[C@H](Cc2ccccc2)NC(=O)[C@H](CCCNC(=N)N)NC1=O
B5: cyclic nNOS β-hairpin peptide V122Y (peptide)
peptide: cyclo(THLETTFTGDGTPKTIRYTQ[dP]GQ)
SMILES: CC[C@H](C)[C@@H]1NC(=O)[C@H]([C@@H](C)O)NC(=O)[C@H](CCCCN)NC(=O)[C@@H]2CCCN2C(=O)[C@H]([C@@H](C)O)NC(=O)CNC(=O)[C@H](CC(=O)O)NC(=O)CNC(=O)[C@H]([C@@H](C)O)NC(=O)[C@H](Cc2ccccc2)NC(=O)[C@H]([C@@H](C)O)NC(=O)[C@H]([C@@H](C)O)NC(=O)[C@H](CCC(=O)O)NC(=O)[C@H](CC(C)C)NC(=O)[C@H](Cc2c[nH]cn2)NC(=O)[C@H]([C@@H](C)O)NC(=O)[C@H](CCC(N)=O)NC(=O)CNC(=O)[C@H]2CCCN2C(=O)[C@H](CCC(N)=O)NC(=O)[C@H]([C@@H](C)O)NC(=O)[C@H](Cc2ccc(O)cc2)NC(=O)[C@H](CCCNC(=N)N)NC1=O
B6: cyclic nNOS β-hairpin peptide D114A (peptide)
peptide: cyclo(THLETTFTGAGTPKTIRVTQ[dP]GQ)
SMILES: CC[C@H](C)[C@@H]1NC(=O)[C@H]([C@@H](C)O)NC(=O)[C@H](CCCCN)NC(=O)[C@@H]2CCCN2C(=O)[C@H]([C@@H](C)O)NC(=O)CNC(=O)[C@H](C)NC(=O)CNC(=O)[C@H]([C@@H](C)O)NC(=O)[C@H](Cc2ccccc2)NC(=O)[C@H]([C@@H](C)O)NC(=O)[C@H]([C@@H](C)O)NC(=O)[C@H](CCC(=O)O)NC(=O)[C@H](CC(C)C)NC(=O)[C@H](Cc2c[nH]cn2)NC(=O)[C@H]([C@@H](C)O)NC(=O)[C@H](CCC(N)=O)NC(=O)CNC(=O)[C@H]2CCCN2C(=O)[C@H](CCC(N)=O)NC(=O)[C@H]([C@@H](C)O)NC(=O)[C@H](C(C)C)NC(=O)[C@H](CCCNC(=N)N)NC1=O
B7: cyclic nNOS β-hairpin peptide G113A (peptide)
peptide: cyclo(THLETTFTADGTPKTIRVTQ[dP]GQ)
SMILES: CC[C@H](C)[C@@H]1NC(=O)[C@H]([C@@H](C)O)NC(=O)[C@H](CCCCN)NC(=O)[C@@H]2CCCN2C(=O)[C@H]([C@@H](C)O)NC(=O)CNC(=O)[C@H](CC(=O)O)NC(=O)[C@H](C)NC(=O)[C@H]([C@@H](C)O)NC(=O)[C@H](Cc2ccccc2)NC(=O)[C@H]([C@@H](C)O)NC(=O)[C@H]([C@@H](C)O)NC(=O)[C@H](CCC(=O)O)NC(=O)[C@H](CC(C)C)NC(=O)[C@H](Cc2c[nH]cn2)NC(=O)[C@H]([C@@H](C)O)NC(=O)[C@H](CCC(N)=O)NC(=O)CNC(=O)[C@H]2CCCN2C(=O)[C@H](CCC(N)=O)NC(=O)[C@H]([C@@H](C)O)NC(=O)[C@H](C(C)C)NC(=O)[C@H](CCCNC(=N)N)NC1=O
B8: cyclic nNOS β-hairpin peptide E108A (peptide)
peptide: cyclo(THLATTFTGDGTPKTIRVTQ[dP]GQ)
SMILES: CC[C@H](C)[C@@H]1NC(=O)[C@H]([C@@H](C)O)NC(=O)[C@H](CCCCN)NC(=O)[C@@H]2CCCN2C(=O)[C@H]([C@@H](C)O)NC(=O)CNC(=O)[C@H](CC(=O)O)NC(=O)CNC(=O)[C@H]([C@@H](C)O)NC(=O)[C@H](Cc2ccccc2)NC(=O)[C@H]([C@@H](C)O)NC(=O)[C@H]([C@@H](C)O)NC(=O)[C@H](C)NC(=O)[C@H](CC(C)C)NC(=O)[C@H](Cc2c[nH]cn2)NC(=O)[C@H]([C@@H](C)O)NC(=O)[C@H](CCC(N)=O)NC(=O)CNC(=O)[C@H]2CCCN2C(=O)[C@H](CCC(N)=O)NC(=O)[C@H]([C@@H](C)O)NC(=O)[C@H](C(C)C)NC(=O)[C@H](CCCNC(=N)N)NC1=O

Here are results for eight molecules from patent US20230220021A1 (UNIVERSITY OF COPENHAGEN, published 2023).

[ ]: non-standard residue; d: D form.

T1 sequence (P78352 160-246): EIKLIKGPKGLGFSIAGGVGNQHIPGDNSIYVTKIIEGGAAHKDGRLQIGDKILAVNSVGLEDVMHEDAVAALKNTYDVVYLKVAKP

One test addresses T1, (7× His)-PSD-95-PDZ2 wild type (UniProt P78352 160-246).
T1 construct: domain: PDZ2; recombinant from E. coli; also called PSD-95-PDZ2 WT; not shown: 7x His tag
Put plainly: FP competition.
Broadly, the Ki is the equilibrium dissociation constant of an inhibitor or competing ligand from its target. Low readings indicate a stronger hold on the target, high ones a looser hold on the target. Regarding B1, the inhibition constant (Ki) is 1870 nM and the “Relative Ki (Ki mut/Ki WT)” value turned out to be 1.25.

For B2, the Ki was determined as 1590 nM and the “Relative Ki (Ki mut/Ki WT)” value came out at 1.06.

Regarding B3, the affinity, expressed as Ki, was 1690 nM and the “Relative Ki (Ki mut/Ki WT)” value was 1.13.

For the molecule B4, affinity was put at a Ki of 1340 nM and the “Relative Ki (Ki mut/Ki WT)” value turned out to be 0.89.

For B5, the Ki turned out to be 1270 nM and the “Relative Ki (Ki mut/Ki WT)” value amounted to 0.85.

In a further test the target is T1, (7× His)-PSD-95-PDZ2 wild type. Put plainly: FP competition. This is another data set of the same source.
Procedure: Fluorescence polarization (FP). FP assays were performed in a 384-well plate format. Fluorescence polarization was measured using a Safire 2 plate reader. The instrument Z-factor was optimized for each assay. The G-factor was calibrated to an initial milli polarization value of 20. […] Every measurement was performed in NaPI 50 mM, 50 mM NaCl and 1% BSA at pH 7.2, 25° C. […] The curves were done in triplicates. […] The mili polarization (mP) values were plotted as a function of peptide concentration and fitted to a sigmoidal dose-response curve using Prism software 8.0 (GraphPad). The Kᵢ values were calculated according to Nikolovska-Coleska Z. et al.⁴⁰⁻⁴¹
With B6, the Ki was 3220 nM and the “Relative Ki (Ki mut/Ki WT)” value amounted to 2.15.

In the case of B7, the Ki is 4550 nM and the “Relative Ki (Ki mut/Ki WT)” value was 3.03.

Regarding B8, the inhibitory constant (Ki) stood at 21200 nM and the “Relative Ki (Ki mut/Ki WT)” value was determined as 14.1.
